Reference: the supplement of paper PMC10724198

Tests used:
Saccharomyces cerevisiae [1] = test: protein stability index of tFT-peptide fusion in wild type (PSI (0-1 scale)); higher = more stable (slower turnover); settings: genetic background: wild type
Saccharomyces cerevisiae [2] = test: protein stability index of tFT-peptide fusion (C-terminal peptide) (PSI (0-1 scale)); higher = more stable (slower turnover)
Description: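 MPS profiling in S. cerevisiae of the tFT-X12 degron library: putative degron peptides plus stable controls, 12 aa, fused to the C-terminus of a sfGFP-mCherry timer. Cells are FACS-sorted into 8 mCherry/sfGFP bins and deep-sequenced. PSI runs from 0 (unstable) to 1 (stable). Backgrounds are wild type, das1Δ and doa10Δ at 30 °C, and wild type, das1Δ, cdc34-1 and cdc53-1 at 37 °C; 2-3 technical replicates each.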

Saccharomyces cerevisiae [3] = test: as above; settings: genetic background: wild type; temperature: 30 C
Saccharomyces cerevisiae [4] = test: protein stability index of tFT-peptide fusion in deletion strain of DOA10 (PSI (0-1 scale)); higher = more stable (slower turnover)
Description: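 MPS profiling in S. cerevisiae of two library types built from selected 12-aa C-degron peptides (IN1, IN2, LN1, LN3, VN2, R1-R5, W1-W3, Atg1 and Rpa12 C-termini): saturation mutagenesis libraries and C-terminal +1 capping libraries (13 aa). Each peptide is fused to the C-terminus of a sfGFP-mCherry timer, after a GGGS linker. Cells are FACS-sorted into 8 mCherry/sfGFP bins and sequenced. PSI runs from 0 (unstable) to 1 (stable), measured once in wild type and in the das1Δ or doa10Δ background.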
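For protein stability index of tFT-peptide fusion (C-terminal peptide) in this document: PSI is a weighted mean of sequencing reads over stability bins, variants kept only with over 10 reads, mCherry proximal and sfGFP distal, peptide attached via GGGS linker.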
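For protein stability index of tFT-peptide fusion in deletion strain of DOA10 in this document: PSI per variant is the weighted mean of its sequencing read distribution over the sorted stability bins, counting only variants with over 10 reads summed across bins.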
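For protein stability index of tFT-peptide fusion in wild type in this document: PSI derived as read-weighted mean over the 8 sorting bins, only variants exceeding 10 total reads kept, mCherry placed adjacent to the peptide and sfGFP distal.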

GLYMCSVGCWFR
Settings | protein stability index
Saccharomyces cerevisiae [1] | 0.264
Saccharomyces cerevisiae [3] | 0.408
Saccharomyces cerevisiae [4] | 0.629

Saccharomyces cerevisiae [2]
Settings | protein stability index
genetic background: cdc34-1, temperature: 37 C | 0.104
genetic background: cdc53-1, temperature: 37 C | 0.0717

protein stability index, Saccharomyces cerevisiae [2]
Settings | genetic background: das1 deletion | genetic background: doa10 deletion | genetic background: wild type
temperature: 30 C | 0.223 | 0.586 | 0.231
temperature: 37 C | 0.2809 | – | 0.252
